Assay results reported in patent US20020081280A1.
Values joined by “and” are separate entries in the source; they are usually repeats but may differ in a detail not shown here. Equal values may be shown once.

What was measured:
[1] = target: coxsackievirus and adenovirus receptor (CAR) on human cells (human) (UniProt P78310); test: cell-based or functional assay
[2] = target: cellular integrins on HUVEC cells; test: 125I-Ad5lucRGD binding to HUVEC cells at 4 °C, penton base at 100 µg/ml; competitor Ad5lucRGD

Sequence of UniProt P78310 (P78310 20-365): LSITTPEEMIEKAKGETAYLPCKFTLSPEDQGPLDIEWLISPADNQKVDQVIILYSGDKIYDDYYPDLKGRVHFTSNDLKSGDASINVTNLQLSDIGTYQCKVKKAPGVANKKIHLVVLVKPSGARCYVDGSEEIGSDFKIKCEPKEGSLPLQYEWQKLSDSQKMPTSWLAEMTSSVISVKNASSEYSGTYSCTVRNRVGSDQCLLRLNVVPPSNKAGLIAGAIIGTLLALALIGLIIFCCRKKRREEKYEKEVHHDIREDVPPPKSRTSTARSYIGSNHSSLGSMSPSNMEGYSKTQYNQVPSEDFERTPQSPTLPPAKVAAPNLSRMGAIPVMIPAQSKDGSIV

AdCMVLuc virions (E1-deleted Ad5 vector with unmodified wild-type fibers) (from UniProt P11818 1-581)
blockade of luciferase gene transfer by knob competition, HeLa and SCCHN cell lines (FaDu, SCC-4, SCC-25) [1]: > 90%
gene transfer to SKOV3.ipl cells blocked by fiber knob [1]: > 90%
luciferase activity in 293 cells blocked by recombinant knob protein (100 µg/ml) [1]: 85 to 93%
luciferase activity in SKOV3.ipl cells blocked by excess fiber knob [1]: 82% and 91%
luciferase activity in ovarian cancer ascites cells blocked by excess fiber knob [1]: 90%
reduction of luciferase activity in CaOV-3 cells by fiber knob blockade, dose 3x10^6 PFU [1]: 55%
reduction of luciferase activity in UCI-101 cells by the fiber knob block [1]: 94% and 97%

recombinant human adenovirus serotype 2 penton base protein, expressed in Sf9 cells (from UniProt P03276 1-571)
percent decrease of bound virus radioactivity [2]: 25%
